Reference: the Human Domainome abundance scans (Beltran et al. 2025)
± gives the uncertainty stated by the source.

B1: Transitional endoplasmic reticulum ATPase, residues 26 to 106; numbered along this chain, P55072 (parent)
chain: LIVDEAINEDNSVVSLSQPKMDELQLFRGDTVLLKGKKRREAVCIVLSDDTCSDEKIRMNRVVRNNLRVRLGDVISIQPCP
B2: POU domain, class 2, transcription factor 3, residues 186 to 260; numbered along this chain, Q9UKI9 (parent)
chain: SDLEELEKFAKTFKQRRIKLGFTQGDVGLAMGKLYGNDFSQTTISRFEALNLSFKNMCKLKPLLEKWLNDAESSP

Variants of: B1
Assay: abundance fitness (aPCA) (normalised: wild type 0, dead -1); higher = more abundant; growth selection in yeast, the domain comes from the species named
Settings: Homo sapiens

Variant	abundance fitness
G72M	-0.392 ± 0.12
G72F	-0.336 ± 0.22
G72S	-0.278 ± 0.082
G72T	-0.037 ± 0.1
G72Q	-0.424 ± 0.13
G72Y	-0.256 ± 0.23
G72W	-0.363 ± 0.073
G72C	-0.453 ± 0.2
G72H	-0.257 ± 0.16
D73I	-0.655 ± 0.24
D73P	-0.915 ± 0.19
D73F	-0.861 ± 0.18
D73W	-0.412 ± 0.13
D73C	-0.343 ± 0.15
D73S	-0.012 ± 0.07
D73R	-0.715 ± 0.084
D73Q	0.004 ± 0.096
D73M	-0.391 ± 0.11
D73K	-0.309 ± 0.14
D73L	-0.922 ± 0.13
D73T	-0.252 ± 0.097
D73N	-0.102 ± 0.22
D73H	-0.135 ± 0.14
D73V	-0.949 ± 0.093

Variant	abundance fitness
P81S	-0.106 ± 0.064
P81V	-0.153 ± 0.14
P81D	0.058 ± 0.12
P81H	-0.261 ± 0.1
P81N	0.073 ± 0.17
P81I	-0.174 ± 0.15
P81Y	-0.224 ± 0.16
P81T	-0.013 ± 0.12
P81A	-0.042 ± 0.044
P81F	-0.195 ± 0.16
P81R	-0.221 ± 0.14
P81G	-0.451 ± 0.22
P81L	-0.405 ± 0.21
P81C	-0.262 ± 0.29
I75W	-1.04 ± 0.37
I75K	-1.05 ± 0.3
I75H	-0.695 ± 0.14
I75M	-0.2 ± 0.11
I75L	-0.155 ± 0.054
I75Q	-1.11 ± 0.28
I75T	-0.495 ± 0.14
I75V	-0.039 ± 0.069
I75C	-0.265 ± 0.12
I75G	-0.944 ± 0.19

Variant	abundance fitness
I75N	-0.842 ± 0.31
I75F	-0.859 ± 0.15
I75E	-0.633 ± 0.19
I75Y	-0.916 ± 0.31
I75D	-0.863 ± 0.41
I75A	-0.246 ± 0.088
L71F	-0.184 ± 0.25
L71C	-0.112 ± 0.11
L71M	-0.002 ± 0.12
L71N	0.103 ± 0.14
L71R	-0.102 ± 0.055
L71T	0.083 ± 0.097
L71I	0.045 ± 0.13
L71Q	-0.028 ± 0.076
L71G	0.009 ± 0.053
L71E	0.07 ± 0.069
L71S	-0.004 ± 0.073
L71P	-0.083 ± 0.061
L71Y	-0.391 ± 0.34
L71D	-0.086 ± 0.15
L71K	-0.026 ± 0.091
L71V	-0.048 ± 0.058
L71A	0.114 ± 0.066

Variants of: B2
Assay: as above
Settings: Homo sapiens

Variant	abundance fitness
SDLEELEKFAKTFKQGRIKLGFTQGDVGLAMGKLYGNDFSQTTISRFEALNLSFKNMCKLKPLLEKWLNDAESSP [R16G]	-0.147 ± 0.11
SDLEEFEKFAKTFKQRRIKLGFTQGDVGLAMGKLYGNDFSQTTISRFEALNLSFKNMCKLKPLLEKWLNDAESSP [L6F]	-0.229 ± 0.32
SDLEESEKFAKTFKQRRIKLGFTQGDVGLAMGKLYGNDFSQTTISRFEALNLSFKNMCKLKPLLEKWLNDAESSP [L6S]	-0.16 ± 0.39
FDLEELEKFAKTFKQRRIKLGFTQGDVGLAMGKLYGNDFSQTTISRFEALNLSFKNMCKLKPLLEKWLNDAESSP [S1F]	-0.062 ± 0.2
SDLEELEKFAKTFAQRRIKLGFTQGDVGLAMGKLYGNDFSQTTISRFEALNLSFKNMCKLKPLLEKWLNDAESSP [K14A]	-0.309 ± 0.32
SELEELEKFAKTFKQRRIKLGFTQGDVGLAMGKLYGNDFSQTTISRFEALNLSFKNMCKLKPLLEKWLNDAESSP [D2E]	0.015 ± 0.1
SNLEELEKFAKTFKQRRIKLGFTQGDVGLAMGKLYGNDFSQTTISRFEALNLSFKNMCKLKPLLEKWLNDAESSP [D2N]	-0.107 ± 0.21
SGLEELEKFAKTFKQRRIKLGFTQGDVGLAMGKLYGNDFSQTTISRFEALNLSFKNMCKLKPLLEKWLNDAESSP [D2G]	-0.01 ± 0.41
SDFEELEKFAKTFKQRRIKLGFTQGDVGLAMGKLYGNDFSQTTISRFEALNLSFKNMCKLKPLLEKWLNDAESSP [L3F]	-0.055 ± 0.32
SDLEELEKLAKTFKQRRIKLGFTQGDVGLAMGKLYGNDFSQTTISRFEALNLSFKNMCKLKPLLEKWLNDAESSP [F9L]	-0.514 ± 0.44
SDLEELEKGAKTFKQRRIKLGFTQGDVGLAMGKLYGNDFSQTTISRFEALNLSFKNMCKLKPLLEKWLNDAESSP [F9G]	-0.387 ± 0.28
SDLEELEKSAKTFKQRRIKLGFTQGDVGLAMGKLYGNDFSQTTISRFEALNLSFKNMCKLKPLLEKWLNDAESSP [F9S]	-0.153 ± 0.29
SDLEELEKVAKTFKQRRIKLGFTQGDVGLAMGKLYGNDFSQTTISRFEALNLSFKNMCKLKPLLEKWLNDAESSP [F9V]	-0.441 ± 0.2
SDLEELEGFAKTFKQRRIKLGFTQGDVGLAMGKLYGNDFSQTTISRFEALNLSFKNMCKLKPLLEKWLNDAESSP [K8G]	-0.115 ± 0.1
SDLEELEKFAKTFKARRIKLGFTQGDVGLAMGKLYGNDFSQTTISRFEALNLSFKNMCKLKPLLEKWLNDAESSP [Q15A]	0.474 ± 0.32
SDLEELEKFAKRFKQRRIKLGFTQGDVGLAMGKLYGNDFSQTTISRFEALNLSFKNMCKLKPLLEKWLNDAESSP [T12R]	-0.018 ± 0.11
SDLEELEKFAKNFKQRRIKLGFTQGDVGLAMGKLYGNDFSQTTISRFEALNLSFKNMCKLKPLLEKWLNDAESSP [T12N]	0.063 ± 0.13
SDLEELEKFAKQFKQRRIKLGFTQGDVGLAMGKLYGNDFSQTTISRFEALNLSFKNMCKLKPLLEKWLNDAESSP [T12Q]	0.01 ± 0.13

Variant	abundance fitness
SDLEELEKFAKTFKQRRAKLGFTQGDVGLAMGKLYGNDFSQTTISRFEALNLSFKNMCKLKPLLEKWLNDAESSP [I18A]	-0.056 ± 0.031
SDLEILEKFAKTFKQRRIKLGFTQGDVGLAMGKLYGNDFSQTTISRFEALNLSFKNMCKLKPLLEKWLNDAESSP [E5I]	-0.022 ± 0.061
SDLEDLEKFAKTFKQRRIKLGFTQGDVGLAMGKLYGNDFSQTTISRFEALNLSFKNMCKLKPLLEKWLNDAESSP [E5D]	0.036 ± 0.036
SDLEFLEKFAKTFKQRRIKLGFTQGDVGLAMGKLYGNDFSQTTISRFEALNLSFKNMCKLKPLLEKWLNDAESSP [E5F]	-0.102 ± 0.044
SDLECLEKFAKTFKQRRIKLGFTQGDVGLAMGKLYGNDFSQTTISRFEALNLSFKNMCKLKPLLEKWLNDAESSP [E5C]	-0.005 ± 0.036
SDLENLEKFAKTFKQRRIKLGFTQGDVGLAMGKLYGNDFSQTTISRFEALNLSFKNMCKLKPLLEKWLNDAESSP [E5N]	-0.031 ± 0.061
SDLETLEKFAKTFKQRRIKLGFTQGDVGLAMGKLYGNDFSQTTISRFEALNLSFKNMCKLKPLLEKWLNDAESSP [E5T]	0.013 ± 0.031
SDLEMLEKFAKTFKQRRIKLGFTQGDVGLAMGKLYGNDFSQTTISRFEALNLSFKNMCKLKPLLEKWLNDAESSP [E5M]	0.016 ± 0.036
SDLESLEKFAKTFKQRRIKLGFTQGDVGLAMGKLYGNDFSQTTISRFEALNLSFKNMCKLKPLLEKWLNDAESSP [E5S]	0.031 ± 0.03
SDLEGLEKFAKTFKQRRIKLGFTQGDVGLAMGKLYGNDFSQTTISRFEALNLSFKNMCKLKPLLEKWLNDAESSP [E5G]	-0.045 ± 0.027
SDLEWLEKFAKTFKQRRIKLGFTQGDVGLAMGKLYGNDFSQTTISRFEALNLSFKNMCKLKPLLEKWLNDAESSP [E5W]	-0.137 ± 0.033
SDLEALEKFAKTFKQRRIKLGFTQGDVGLAMGKLYGNDFSQTTISRFEALNLSFKNMCKLKPLLEKWLNDAESSP [E5A]	0.042 ± 0.028
SDLERLEKFAKTFKQRRIKLGFTQGDVGLAMGKLYGNDFSQTTISRFEALNLSFKNMCKLKPLLEKWLNDAESSP [E5R]	-0.003 ± 0.026
SDLEQLEKFAKTFKQRRIKLGFTQGDVGLAMGKLYGNDFSQTTISRFEALNLSFKNMCKLKPLLEKWLNDAESSP [E5Q]	0.003 ± 0.04
SDLEHLEKFAKTFKQRRIKLGFTQGDVGLAMGKLYGNDFSQTTISRFEALNLSFKNMCKLKPLLEKWLNDAESSP [E5H]	0.029 ± 0.049
SDLEYLEKFAKTFKQRRIKLGFTQGDVGLAMGKLYGNDFSQTTISRFEALNLSFKNMCKLKPLLEKWLNDAESSP [E5Y]	-0.269 ± 0.051
SDLEELEKFGKTFKQRRIKLGFTQGDVGLAMGKLYGNDFSQTTISRFEALNLSFKNMCKLKPLLEKWLNDAESSP [A10G]	-0.064 ± 0.16
